The text below walks through data of patent US20230220042A1 (SHANGHAI JIAO TONG UNIVERSITY SCHOOL OF MEDICINE, published 2023).

Numbering of substitutions follows the chain as printed. Names may count otherwise.

The chains are these.
B1: anti-human OX40 IgG2 antibody Mut_7 (S239V/V266L/S298L/L328W) (antibody, name in EU numbering)
heavy: QVQLQESGPGLVKPSGTLSLTCAVSGGSISSSIWWSWVRQPPGKGLEWIGEIHHSGNTNCNPSLKSRVTISIDKSKNQFSLKLTSVTAADTAVYYCARAGTGTTLDYWGQGTLVTVSSASTKGPSVFPLAPCSRSTSESTAALGCLVKDYFPEPVTVSWNSGALTSGVHTFPAVLQSSGLYSLSSVVTVPSSNFGTQTYTCNVDHKPSNTKVDKTVERKCCVECPPCPAPPVAGPVVFLFPPKPKDTLMISRTPEVTCVVVDLSHEDPEVQFNWYVDGVEVHNAKTKPREEQFNLTFRVVSVLTVVHQDWLNGKEYKCKVSNKGWPAPIEKTISKTKGQPREPQVYTLPPSREEMTKNQVSLTCLVKGFYPSDIAVEWESNGQPENNYKTTPPMLDSDGSFFLYSKLTVDKSRWQQGNVFSCSVMHEALHNHYTQKSLSLSPGK
light: EIVLTQSPGTLSLSPGERATLSCRASQSVSGDYLAWYQQKLGQAPRLLIYGASIRATGIPDRFSGSGSGTDFTLTISKLEPEDFAVYYCQQYGSSPLTFGGGTKVEIKRTVAAPSVFIFPPSDEQLKSGTASVVCLLNNFYPREAKVQWKVDNALQSGNSQESVTEQDSKDSTYSLSSTLTLSKADYEKHKVYACEVTHQGLSSPVTKSFNRGEC
notes: Substitutions in Eu numbering; entries include an unstated signal peptide
B2: anti-human OX40 IgG2 antibody Mut_10 (S267E/H268S/E269D) (antibody, name in EU numbering)
heavy: B1 heavy with V236S, L263V, S264E, H265S, E266D, L295S, W325L
light: B1 light
notes: as for B1
B3: anti-human OX40 IgG2 antibody Mut_9 (V266L/S267D/H268D/E269D/P271Q) (antibody, name in EU numbering)
heavy: B1 heavy with V236S, S264D, H265D, E266D, P268Q, L295S, W325L
light: B1 light
notes: as for B1

T2 sequence (P12314 16-292): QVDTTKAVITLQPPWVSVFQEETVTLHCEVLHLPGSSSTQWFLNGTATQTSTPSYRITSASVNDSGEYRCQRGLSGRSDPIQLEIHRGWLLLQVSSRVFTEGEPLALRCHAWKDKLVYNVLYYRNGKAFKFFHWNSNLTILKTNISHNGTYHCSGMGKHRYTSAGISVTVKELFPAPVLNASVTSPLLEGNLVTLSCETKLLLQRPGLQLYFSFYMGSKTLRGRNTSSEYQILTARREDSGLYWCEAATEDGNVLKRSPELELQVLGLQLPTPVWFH
T3 sequence (P08637 17-208 F176V): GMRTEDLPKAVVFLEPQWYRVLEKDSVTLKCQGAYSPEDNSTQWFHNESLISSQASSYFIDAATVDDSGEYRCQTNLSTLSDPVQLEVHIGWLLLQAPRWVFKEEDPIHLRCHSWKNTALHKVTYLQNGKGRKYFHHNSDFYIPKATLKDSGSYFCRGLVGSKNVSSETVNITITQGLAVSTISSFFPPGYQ

One assay deals with T1, FcγRIIB (human, UniProt P31994 43-217, biotin-labeled).
T1 construct: extracellular domain; Bought protein; also called CD32b
T1 sequence (looked up): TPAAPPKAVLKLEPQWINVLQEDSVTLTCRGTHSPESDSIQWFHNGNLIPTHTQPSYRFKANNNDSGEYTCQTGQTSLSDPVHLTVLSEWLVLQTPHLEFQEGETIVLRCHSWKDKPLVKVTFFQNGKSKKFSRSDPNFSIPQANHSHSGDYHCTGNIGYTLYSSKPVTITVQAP
Nature of the assay: ELISA; relative affinity to FcγRIIB over that to FcγRIIA131R. The method, then:
(§1) One hundred μl (2 μg/mL) of antibody or mutant thereof were added to the enzyme-linked plate to be coated overnight, then the supernatant was discarded. The plate was blocked with PBS containing 1% BSA for 2 hours, and washed with PBST (PBS containing 0.05% Tween 20). Biotin-labeled FcγR extracellular domain protein (Beijing Sino Biological Co., Ltd) of appropriate concentration was added and incubated at room temperature for 1 hour, then the supernatant was discarded and the plate was washed with PBST. The Biotin-labeled protein was detected by incubating with Streptavidin-HRP (BD BioSciences) at room temperature for 1 hour. The supernatant was removed, and the color-developing solution was added for color development for 20-40 minutes to determine the absorbance of 650 nm (A650).
(§2) Anti-human OX40 antibodies containing these new Fc mutation combinations are expressed and the binding property of the mutant antibody to FcγR are analyzed by Enzyme-linked immunosorbent assay (ELISA).
With B1, the RIIB/RIIAR was determined as 0.88 ratio.

With B2, the RIIB/RIIAR came to 0.85 ratio.

Regarding B3, the RIIB/RIIAR amounted to 0.56 ratio.

Another assay addresses T2, FcγRI (human, UniProt P12314 16-292, biotin-labeled).
T2 construct: extracellular domain; Bought protein; also called CD64
Description: ELISA, coated antibody, biotin-FcγR.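 On Absorbance value: antibody coated at 2 µg/mL at 100 µL per well.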 The method, then: as §1, §2
(In general: In an ELISA, binding on a coated surface is turned into a signal by an enzyme label.)
As for B1, the Absorbance value turned out to be 0.13 A650 and the “Relative binding affinity RI/G1” value was 0.05 ratio.

In the case of B2, the Absorbance value is 0.18 A650 and the “Relative binding affinity RI/G1” value came to 0.07 ratio.

Take B3: the Absorbance value was 0.12 A650 and the “Relative binding affinity RI/G1” value amounted to 0.05 ratio.

A further assay concerns the target T3, FcγRIIIA^158V (human, UniProt P08637 17-208, biotin-labeled).
T3 construct: extracellular domain; Bought protein; also called RIIIAV; CD16a 158V
Nature of the assay: ELISA, coated antibody, biotin-FcγR.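 On Absorbance value: antibody coated at 2 µg/mL at 100 µL per well.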 The method, then:
as §1, §2
On to B1, for which the Absorbance value was 0.06 A650 and the “Relative binding affinity RIIIAV/G1” value was found to be 0.07 ratio.

For the molecule B2, the Absorbance value worked out at 0.09 A650 and the “Relative binding affinity RIIIAV/G1” value was found to be 0.09 ratio.

Take B3: the Absorbance value came to 0.07 A650 and the “Relative binding affinity RIIIAV/G1” value was determined as 0.08 ratio.

In another assay the target is T4, FcγRIIA^131R (human, UniProt P12318 34-217, biotin-labeled).
T4 construct: extracellular domain; Bought protein; also called RIIAR
T4 sequence (looked up): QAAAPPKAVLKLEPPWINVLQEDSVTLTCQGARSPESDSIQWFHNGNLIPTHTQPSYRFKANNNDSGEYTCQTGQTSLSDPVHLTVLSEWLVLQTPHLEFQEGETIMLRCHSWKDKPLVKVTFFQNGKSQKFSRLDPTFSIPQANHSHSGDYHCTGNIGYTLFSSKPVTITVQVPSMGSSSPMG
Nature of the assay: ELISA, coated antibody, biotin-FcγR.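 On Absorbance value: antibody coated at 2 µg/mL at 100 µL per well.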 The method, then: as §1, §2
On to B1, for which the Absorbance value was 0.23 A650 and the “Relative binding affinity RIIAR/G1” value turned out to be 0.87 ratio.

With B2, the Absorbance value is 0.43 A650 and the “Relative binding affinity RIIAR/G1” value was determined as 1.64 ratio.

B3: the Absorbance value worked out at 0.74 A650 and the “Relative binding affinity RIIAR/G1” value was 2.83 ratio.

For a further assay, the target named is T5, FcγRIIIA^158F (human, UniProt P08637 17-208, biotin-labeled).
T5 construct: extracellular domain; Bought protein; also called RIIIAF
T5 sequence (P08637 17-208): as the sequence (P08637 17-208 F176V) above, with V160F counted along it
Nature of the assay: ELISA, coated antibody, biotin-FcγR.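 On Absorbance value: antibody coated at 2 µg/mL at 100 µL per well.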 The method, then: as §1, §2
As for B1, the Absorbance value came to 0.07 A650 and the “Relative binding affinity RIIIAF/G1” value amounted to 0.38 ratio.

Regarding B2, the Absorbance value was 0.09 A650 and the “Relative binding affinity RIIIAF/G1” value was 0.48 ratio.

Take B3: the Absorbance value came out at 0.07 A650 and the “Relative binding affinity RIIIAF/G1” value came to 0.38 ratio.

Another assay deals with T1, FcγRIIB. Description: ELISA, coated antibody, biotin-FcγR.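 On Absorbance value: antibody coated at 2 µg/mL at 100 µL per well.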 The procedure: as §1, §2
Turning to B1, the Absorbance value was 0.58 A650, the “Increased factor of RIIB binding compared with wild-type IgG2” value (“Increased factor of RIIB binding” below) stood at 7.7 fold and the “Relative binding affinity RIIB/G1” value worked out at 0.76 ratio.

Regarding B2, the Absorbance value amounted to 1.05 A650, the “Increased factor of RIIB binding” value is 14.1 fold and the “Relative binding affinity RIIB/G1” value was found to be 1.4 ratio.

In the case of B3, the Absorbance value was 1.2 A650, the “Increased factor of RIIB binding” value was determined as 16 fold and the “Relative binding affinity RIIB/G1” value came to 1.59 ratio.

Another assay concerns the target T6, FcγRIIA^131H (human, UniProt P12318 34-217, biotin-labeled).
T6 construct: extracellular domain; Bought protein; also called RIIAH
T6 sequence (looked up): T4 sequence (looked up) with R134H
Description: ELISA, coated antibody, biotin-FcγR.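 On Absorbance value: antibody coated at 2 µg/mL at 100 µL per well.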 The procedure:
as §1, §2
For B1, the Absorbance value came out at 0.38 A650 and the “Relative binding affinity RIIAH/G1” value was 0.67 ratio.

B2: the Absorbance value amounted to 0.58 A650 and the “Relative binding affinity RIIAH/G1” value came out at 1.02 ratio.

For B3, the Absorbance value came out at 0.2 A650 and the “Relative binding affinity RIIAH/G1” value was found to be 0.34 ratio.
